Measurements published in publication doi:10.1101/2024.08.09.607165.

Assays:
[1] = molecular target: TraT encoded by pKpQIL (TraT_(pKpQIL)), mature protein C36-L258 (K. pneumoniae (plasmid pKpQIL)); test: cryo-EM structure
[2] = molecular target: TraT encoded by the F plasmid derivative pOX38 (TraTF), mature protein C21-L244 (E. coli (F plasmid, pOX38)); test: cryo-EM structure

| stoichiometry N [2] | Substance | stoichiometry N [1] |
| --- | --- | --- |
| – | TraT encoded by pKpQIL (TraT_(pKpQIL)), mature protein C36-L258 (natural protein) | 10 |
| 10 | TraT encoded by the F plasmid derivative pOX38 (TraTF), mature protein C21-L244 (natural protein) | – |
